This note sets out measurements from publication PMC6824469.

To fix the notation:
B1: substrate-4 (RNA-4/Cy5 DNA) (DNA:RNA)
DNA 1: GGCACCAACACAAAACACATCTACACUCAACAAUCACUUU
DNA 2: GTAGATGTGTTTTGTGTTGGTGCC
modifications: DNA at nt 17-24 of strand 1 (proximal end of duplex)
B2: substrate-5 (RNA-5/Cy5 DNA) (DNA:RNA)
RNA: GGCACCAACACAAAACACAUCUACACUCAACAAUCACUUU
DNA: GTAGATGTGTTTTGTGTTGGTGCC
modifications: DNA at nt 9-16 of strand 1 (middle of duplex)
B3: substrate-1 (RNA-1/Cy5 DNA) (DNA:RNA)
RNA: GGCACCAACACAAAACACAUCUACACUCAACAAU
DNA: GTAGATGTGTTTTGTGTTGGTGCC

Sequence of Prp43p (rPrp43p);Ntr1p (1-120) (Saccharomyces cerevisiae (P53131 whole entry, chain 1 of 2): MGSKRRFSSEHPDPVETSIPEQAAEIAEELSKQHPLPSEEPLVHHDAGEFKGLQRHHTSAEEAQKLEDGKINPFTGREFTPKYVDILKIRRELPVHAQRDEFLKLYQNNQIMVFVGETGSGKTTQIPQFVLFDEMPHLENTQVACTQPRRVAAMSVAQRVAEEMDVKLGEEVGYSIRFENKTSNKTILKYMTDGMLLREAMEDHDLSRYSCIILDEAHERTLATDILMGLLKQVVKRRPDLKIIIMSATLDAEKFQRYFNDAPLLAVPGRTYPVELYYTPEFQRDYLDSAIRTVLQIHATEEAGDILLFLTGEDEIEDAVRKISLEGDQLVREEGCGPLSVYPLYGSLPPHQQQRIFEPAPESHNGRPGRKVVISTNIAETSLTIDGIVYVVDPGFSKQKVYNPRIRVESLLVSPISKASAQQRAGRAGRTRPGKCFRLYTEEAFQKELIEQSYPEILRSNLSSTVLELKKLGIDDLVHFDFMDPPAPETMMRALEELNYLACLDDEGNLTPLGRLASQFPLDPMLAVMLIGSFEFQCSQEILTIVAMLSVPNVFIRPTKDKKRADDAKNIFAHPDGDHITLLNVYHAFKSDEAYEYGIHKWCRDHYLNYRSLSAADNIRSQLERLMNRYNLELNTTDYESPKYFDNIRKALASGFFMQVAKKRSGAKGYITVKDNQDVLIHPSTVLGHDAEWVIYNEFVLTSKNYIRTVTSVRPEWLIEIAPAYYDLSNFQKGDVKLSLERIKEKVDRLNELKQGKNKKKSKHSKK
Sequence of Prp43p (rPrp43p);Ntr1p (1-120) (Saccharomyces cerevisiae (Q06411 1-120, chain 2 of 2): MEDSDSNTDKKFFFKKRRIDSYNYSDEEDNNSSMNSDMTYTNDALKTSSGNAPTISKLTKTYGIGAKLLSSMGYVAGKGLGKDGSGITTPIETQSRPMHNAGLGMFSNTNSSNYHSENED

This data set concerns the target Prp43p (rPrp43p);Ntr1p (1-120) (Saccharomyces cerevisiae (budding …, UniProt P53131;Q06411 1-767;1-120, |)). Briefly: EMSA.
With B1, the binding result is reported as “binds”.

In the case of B2, the binding result is recorded as “binds”.

On to B3, for which the binding result is given as “binds”.
